Values quoted from earlier work, collected in patent publication US12539328B2, “Oral vaccine via dental bacteria and emitted peptides to prevent COVID-19 infection” (priority 2021, dated 2026).

Tested on: SARS-CoV-2 infection of Vero E6 cells
Details: first approach, built around an ACE2 helix; read-out: IC50 of SARS-CoV-2 neutralization

B1: AHB1 (protein)
chain: DEDLEELERLYRKAEEVAKEAKDASRRGDDERAKEQMERAMRLDQVFELAQELQEKQTDGNRQKATHLDKAVKEAADELYQRVR
IC50: 35 nM

B2: AHB2 (protein)
chain: ELEEQVMHVLDQVSELAHELLHKLTGEELERAAYFNWWATEMMLELIKSDDEREIREIEEEARRILEHLEELARK
IC50: 15.5 nM
